Source: article PMC4288177

What was measured:
[1] = molecular target: T1, DnaA (AaDnaA, truncated) (Aquifex aeolicus, UniProt O66659 77-399); assay: smPIFE
T1 sequence: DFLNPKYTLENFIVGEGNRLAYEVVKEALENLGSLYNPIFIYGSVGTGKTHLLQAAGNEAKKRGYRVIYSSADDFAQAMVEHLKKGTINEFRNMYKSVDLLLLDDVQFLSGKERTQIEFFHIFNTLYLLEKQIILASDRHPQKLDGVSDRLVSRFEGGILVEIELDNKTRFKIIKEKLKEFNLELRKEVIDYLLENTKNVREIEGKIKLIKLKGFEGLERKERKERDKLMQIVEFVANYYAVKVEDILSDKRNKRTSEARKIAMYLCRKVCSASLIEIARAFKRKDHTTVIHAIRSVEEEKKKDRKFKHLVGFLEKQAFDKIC

[2] = molecular target: T1, DnaA (AaDnaA, truncated); assay: smPIFE; remark: listed apart in the source
[3] = molecular target: T1, DnaA (AaDnaA, truncated); assay: smFRET
[4] = molecular target: T1, DnaA (AaDnaA, truncated); assay: smPIFE; remark: listed apart in the source
[5] = molecular target: T1, DnaA (AaDnaA, truncated); assay: smPIFE; remark: listed apart in the source
[6] = molecular target: T1, DnaA (AaDnaA, truncated); assay: smPIFE; remark: listed apart in the source

B1: pdT21 (Cy3 only, PIFE) (mixed)
DNA 1: TGGCGACGGCAGCGAGGCTTTTTTTTTTTTTTTTTTTTT
DNA 2: GCCTCGCTGCCGTCGCCA
Q: Does B1 bind [1]?
A: binds

B2: pdTcontrol (Cy3 only) (mixed)
DNA 1: B1 DNA 1
DNA 2: GCCTCGCTGCCGTCGCCA
modifications: C6-amino-dT at position 19
Q: Does B2 bind [2]?
A: binds

B3: pdT21 (mixed)
DNA 1: B1 DNA 1
DNA 2: GCCTCGCTGCCGTCGCCA
Q: Does B3 bind [3]?
A: binds

B4: pdT3+17 (Cy3 only) (mixed)
DNA 1: B1 DNA 1
DNA 2: GCCTCGCTGCCGTCGCCA
modifications: C6-amino-dT at position 22
Q: Does B4 bind [4]?
A: binds

B5: 5'-OP21 (Cy3 only) (mixed)
DNA 1: TTTTTTTTTTTTTTTTTTTTTCGGAGCGACGGCAGCGGT
DNA 2: ACCGCTGCCGTCGCTCCG
Q: Does B5 bind [5]?
A: binds

B6: 3'-OP21 (Cy3 only) (mixed)
DNA 1: B5 DNA 1
DNA 2: ACCGCTGCCGTCGCTCCG
modifications: C6-amino-dT at position 21
Q: Does B6 bind [6]?
A: binds
